According to the nanobody polyreactivity screen of Harvey et al. (2022):

test: yeast display, Sf9 membrane polyspecificity reagent, FACS + sequencing; frameworks hold sequencing errors
Outline: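 Nanobodies came from a synthetic yeast display library in Saccharomyces cerevisiae BJ5465, induced with galactose for 36–48 hours and stained for 1 hour at 4 °C with 10% biotinylated, detergent-solubilized Sf9 membrane reagent. Cells were enriched on streptavidin microbeads and then FACS-sorted, with low and high (top ~1%) gates set on anti-HA fluorescence for expression and streptavidin fluorescence for reagent binding. Each polyreactivity label reflects the gate a clone came from. Genes were amplified by colony PCR, sequenced by MiSeq 2 × 250 and filtered by CDR length.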

| Sequence | polyreactivity (PSR sort gate) |
| --- | --- |
| QVQLVESGGGLVQAGGSLRLSCAASGSTFAFNAMGWYRQAPGKERELVAAISTSGGDTYYADSVKGRFTISRDNAKNTVYLQMNSLKPEDTAVYYCGGDYQVPGGSWMDYWGQGTQVTVSS | high polyreactivity |
| QVQLVESGGGLVQAGGSLRLSCAASGSTFAFYAMGWYRQAPGKERELVAAINLGGGSTYYADSVKGRFTISRDNAKNTVYLQMNSLKPEDTAVYYCAADFWTFSWPVFDTYVYWGQGTQVTVSS | low polyreactivity |
| QVQLVESGGGLVQAGGSLRLSCAASGSTFAFYAMGWYRQAPGKERELVAAISSSGARTYYADSVKGRFTISRYNAKNTVYLQMNSLKPEDTAVYYCAAAFYRLYITSYYYWGQGTQVTVSS | high polyreactivity |
| QVQLVESGGGLVQAGGSLRLSCAASGSTFAGHAMGWSRQAPGKERELVAAITFSGGRTDYADSVKGRFTISRDNAKNTVYLQMNSLIPEDTAVYYCAAPADDTVHYQNYYWGQGTQVTVSS | low polyreactivity |
| QVQLVESGGGLVQAGGSLRLSCAASGSTFAGNAMGWYRQAPGKERELVAAISGSGGITYYADSVKGRFTISRDNAKNTVYLQMNSLKPEDTAVYYCNAYYWFSRYGYWGQGTQVTVSS | high polyreactivity |
| QVQLVESGGGLVQAGGSLRLSCAASGSTFAGYAMGWYRQAPGKERELVAAISRRGGSTYYADSVKGRFTISRDNAKNTVYLQMNSLKPEDTAVYYCNRDKYLRDPDYDYWGQGTQVTVSS | low polyreactivity |
| QVQLVESGGGLVQAGGSLRLSCAASGSTFAGYVMGWYRQAPGKERELVAAISRSGGSTYYADSVKGRFTISRDNAKNTVYLQMNSLKPEDTAVYYCAARNSPGFPGDYWGHGTQVTVSS | high polyreactivity |
| QVQLVESGGGLVQAGGSLRLSCAASGSTFAGYVMGWYRQAPGKERELVAAISRSGGSTYYADSVKGRFTISRDNAKNTVYLQMNSLKPEDTAVYYCAARNSPGLPGDYWGQGTQVTVSS | high polyreactivity |
| QVQLVESGGGLVQAGGSLRLSCAASGSTFAIDAMGWDRQAPGQDRELVASISGGSTNYADSVKGRVTISRDKAKNTVDLQRNSLKPEDTAVYYCAARGALQHWYRYDYWGQGTQGTVSS | low polyreactivity |
| QVQLVESGGGLVQAGGSLRLSCAASGSTFAINARGWYRQAPGKERELVAAISSSGSTNYADSVKGRFTISRDNAKITVYLQMNSLKPEDTAVYYCAATGYRVYGFEFGYWGQGTQVTVSS | low polyreactivity |
| QVQLVESGGGLVQAGGSLRLSCAASGSTFAKNAMGWYRQAPGKERELVAAISRGGNTYYADSVKGRFTISRDNAKNTVYLHMNSLKPEDTAVYYCAKLPYTRTYLGSLYDYWGQGTQVTVSS | high polyreactivity |
| QVQLVESGGGLVQAGGSLRLSCAASGSTFAKYAMGWYRQAPGKERELVAVITSGGSTYYADSVKGRFTISRDNAKNTVYLQMNSLKPEDTAVYYCAAAVRAWARRYDYWGQGTQVTVSS | high polyreactivity |
| QVQLVESGGGLVQAGGSLRLSCAASGSTFALNAMGWYRQAPGKERELVADINYIGDSTYYADSVKGRFTISRDNAKNTVYLLMNSLKPEDTAVYYCAAKSIIRPYAPRRDDMDYWGQGTQVTVSS | low polyreactivity |
| QVQLVESGGGLVQAGGSLRLSCAASGSTFAPNAMGWYRQAPGKEREFVATISASGGYTYYADSVKGRFTISRDNAKNTVYLQMNSLKPEDTAVYYCYAVWRVGRQLSQAKIPYDYWGQGTQVTVSS | low polyreactivity |
| QVQLVESGGGLVQAGGSLRLSCAASGSTFAPNAMGWYRQAPGKERELVAAISSGGDSTNYADSVKGRFTISRDNAKNTVYLQMNSLKPEDTAVYYCAHGYWFVAYDYWGQGTQVTVSS | low polyreactivity |
| QVQLVESGGGLVQAGGSLRLSCAASGSTFAPNAMGWYRQAPGKERELVAVITRSVGSTYYADSVKGRFTISRDNSKNTVYLKMNSLKPEDTAVYFCAADYLRQDDYVALDYWGQGTQVTVSS | low polyreactivity |

| Sequence | polyreactivity (PSR sort gate) |
| --- | --- |
| QVQLVESGGGLVQAGGSLRLSCAASGSTFAQNAMGWYILAPGKERELVAAISRRGTITNYADSVKGRFTISRDNEKITVYLQMYSLKPEDTAVYYCATRSWLLGIQGGYWGQGTQVTVSS | high polyreactivity |
| QVQLVESGGGLVQAGGSLRLSCAASGSTFARNAMGWYRQAPGKEREFVATISSSGGRTYYADSVKGRFTISRDIAKNTVYLQMNSLNPEDTAVYYCNKALRTYPLFYYWGQGTQVTVSS | high polyreactivity |
| QVQLVESGGGLVQAGGSLRLSCAASGSTFARNVMGWYRQAPGKERELVAAISWRGGRTYYADSVKGRFTISRDNAKNTVYLQMNSLKPEDTAVYYCAAGRSFRGSYWYEYWGQGTKVTVSS | high polyreactivity |
| QVQLVESGGGLVQAGGSLRLSCAASGSTFARYAMGWYRQAPGKERELVAAITWSGGSTYYADSVKGRFTISRDNAKNTVYLQMNSLKPEDTAVYYCAARRRVGYYWGQGTQVTVSS | high polyreactivity |
| QVQLVESGGGLVQAGGSLRLSCAASGSTFASYAMGWYRQAPGKERELVAAISSSGARTYYADSVKGRFTISRDNAKNTVYLQMNSLKPEDTAVYYCATDSKITETSLRYDYWGQGTQVTVSS | high polyreactivity |
| QVQLVESGGGLVQAGGSLRLSCAASGSTFATYAMGWYRQAPGKERELVAAITRSGGITYYADSVKGRFTISRDNAKNTVYLQMNSLKPEDNAVYYCAKQYKWYGSRFYYWGQGTQVTVSS | high polyreactivity |
| QVQLVESGGGLVQAGGSLRLSCAASGSTFATYAMGWYRQAPGKERELVAVITLGGRTYYADSVKGRFTISRDNAKNTVYLQMNSLKPEDTAVYYCAAKAYTYYARIGFDYWGQGTQVTVSS | high polyreactivity |
| QVQLVESGGGLVQAGGSLRLSCAASGSTFATYTMGWYRQAPGKERELVAAITRGSNTYYADSVKGRFTISRDNAKNTVDLQMNSLKPEHTAVYYCAAGYSGYRKYNSWGQGTQVTVSS | high polyreactivity |
| QVQLVESGGGLVQAGGSLRLSCAASGSTFAVIVMGWYRQAPGKERELVATITYRDGRTYYADSVKGRFTISRDNAKNTVYLQMNSLKPEDTAVYYCAADDEYKQEAEMDSWGQGTQVTVSS | low polyreactivity |
| QVQLVESGGGLVQAGGSLRLSCAASGSTFAVNAMGWYRQAPGKERELVAAITGSGGSTYYADSVKGRFTISRDNAKNTVYLQMNSLKPEDTAVYYCAAYRRYGYYYWGQGTQVTVSS | low polyreactivity |
| QVQLVESGGGLVQAGGSLRLSCAASGSTFAVNVMGWYRQAPGKERELVATITYRDGRTYYADSVKGRFTISRDIAKYTVFLQMNSLKPEDTAVYYCAADDEYTQEAEMDSWGQGTQVTVSS | low polyreactivity |
| QVQLVESGGGLVQAGGSLRLSCAASGSTFAVNVMGWYRQAPGKERELVATITYRDGRTYYADSVKGRFTISRDNAKNTVYLQMNSLKPEDTAVYYCAADDEYKQEAEMDSWGQGTQVTVSS | low polyreactivity |
| QVQLVESGGGLVQAGGSLRLSCAASGSTFAVYAMGWSRKAPGKERELVATIRWSAGRTYYADSVKGRFTISRDNAKNTVYLQMNSLKPEDTAVYYCAARTWGQSTYGQGLDYWGQGTQVTVSS | high polyreactivity |
| QVQLVESGGGLVQAGGSLRLSCAASGSTFAVYAMGWYRQAPGKERELVAAITRGDRTYYADSVKGRFTISRDNAKNTVYLQMNSLKPEDTAVYYCAAGYYRLWVRYDYWGQGTQVTVSS | low polyreactivity |
| QVQLVESGGGLVQAGGSLRLSCAASGSTFAVYAMGWYRQAPGKVRELVAAMRYSGGSTYADSVKGRFTISRDNAKNTVYLQMNSLKPEDTAVYYCAAYVYSLGGEYGYWGQGTHVTVSS | high polyreactivity |
| QVQLVESGGGLVQAGGSLRLSCAASGSTFAVYTMGWYRQAPGKERELSTSYADSVKGRFTISRDNAKNTVYLQMNSLKPEDTAVYYCNRDFYEFDSNSYRFDYWGQGTQVTVSS | low polyreactivity |
